# Measured values as given in US20070092489A1.
# “And” between values parts separate entries of the source, which are not always exact repeats. Equal entries are not always repeated.
# What was measured:
# [1] = biological target: adenovirus fiber knob as shown on Av3GFP adenoviral vector particles; assay: cell-based or functional assay
# [2] = biological target: adenovirus fiber knob as shown on Cy3-labeled adenoviral vector particles; assay: depletion of Cy3-labeled adenovirus from suspension by fluorimetry; D1 tethered on nitinol
# [3] = biological target: adenovirus fiber knob as shown on Cy3-labeled adenoviral vector particles; assay: depletion of Cy3-labeled adenovirus from suspension by fluorimetry; D1 tethered on Co/Cr alloy
# [4] = biological target: adenovirus fiber knob as shown on Cy3-labeled adenoviral vector particles; assay: depletion of Cy3-labeled adenovirus; D1-tethered against anti-knob Ab-tethered metal surfaces
# [5] = biological target: adenovirus fiber knob as shown on Cy3-labeled adenoviral vector particles; assay: depletion of Cy3-labeled adenovirus from suspension by fluorimetry; D1 tethered on stainless steel
Substance,concentration required to achieve maximal GFP expression (Av3GFP transduction of SKOV-3 cells) [1],amount of Ad bound per cm^2 of the surface [2],amount of Ad bound per cm^2 of the surface [3],fold greater adenovirus binding than the specific antibody (anti-knob Ab) [4],amount of Ad bound per cm^2 of the surface [5]
D1-FGF2 fusion protein (CAR D1 ligated to basic fibroblast growth factor FGF2 by intein-mediated protein ligation) (from UniProt P78310 15-140; P09038 134-288),14 nM,–,–,–,–
"thiol-containing form of the D1 domain of the coxsackie-adenovirus receptor (D1-Cys), covalently immobilized on a metal surface (from UniProt P78310 15-140)",–,1.16e+10 Ad per cm^2,1.51e+10 Ad per cm^2,2 fold and 4 fold,1.08e+10 Ad per cm^2
